Positions count from the first letter of the chain named.

The chains are these.
B1: D domain SEQ ID NO: 715 (designed binder)
chain: MGSWVEFRDRLDAIETRLWALGGSEAELAAFEKEIAAFESELQAYKGKGNPEVEWLRYEAAEIRMVLQAYRHN
B2: D domain SEQ ID NO: 753 (designed binder)
chain: B1 chain with V5Y, R8W, D12E, T16E, W55Y, Y58L, E62D, M65R, V66I
B3: D domain SEQ ID NO: 723 (designed binder)
chain: MGSWYEFMVRLDAIEERLFALGGSEAELAAFEKEIAAFESELQAYKGKGNPEVEFLREEAASIRYHLQAYRHN
B4: D domain SEQ ID NO: 742 (designed binder)
chain: MGSWIEFESRLWAIEDRLLALGGSEAELAAFEKEIAAFESELQAYKGKGNPEVEFLRLEAADIREDLQAYRHN
B5: D domain SEQ ID NO: 740 (designed binder)
chain: B4 chain with I5Y, S9E, W12Y, L19Y, L58Q, E65L, D66M
B6: D domain SEQ ID NO: 772 (designed binder)
chain: B1 chain with V5Y, R8Y, D9Q, D12E, T16D, W19F, Y58D, M65V
B7: D domain SEQ ID NO: 721 (designed binder)
chain: MGSWFEFVDRLTAIQVRLWALGGSEAELAAFEKEIAAFESELQAYKGKGNPEVEYLREEAALIRYSLQAYRHN
B8: D domain SEQ ID NO: 755 (designed binder)
chain: B3 chain with M8E, V9N, D12E, F19W, F55M, S62F, Y65D, H66W
B9: D domain SEQ ID NO: 719 (designed binder)
chain: B1 chain with V5Y, R8Y, T16W, Y58D, E62Q, M65D, V66F
B10: D domain SEQ ID NO: 717 (designed binder)
chain: B3 chain with Y5T, M8V, V9W, E16W, F19E, S62E, Y65D, H66W
B11: D domain SEQ ID NO: 751 (designed binder)
chain: B4 chain with I5Y, E8Y, S9N, W12D, L19W, F55Y, L58Q, E65G, D66Q
B12: D domain SEQ ID NO: 752 (designed binder)
chain: B7 chain with F5W, V8H, T12E, Q15E, V16D, E58I, L62D, Y65R, S66Q
B13: D domain SEQ ID NO: 757 (designed binder)
chain: B1 chain with V5Y, R8E, D9N, D12G, E15G, T16D, Y58D, E62Y, M65A
B14: D domain SEQ ID NO: 748 (designed binder)
chain: B4 chain with I5W, S9H, W12F, L19W, L58D, E59Y, D62E, E65D, D66Y
B15: D domain SEQ ID NO: 756 (designed binder)
chain: B7 chain with F5Y, V8E, D9Y, T12E, Q15E, V16D, L62W, Y65V, S66W
B16: D domain SEQ ID NO: 767 (designed binder)
chain: B4 chain with I5E, E8T, S9D, L19Y, F55W, L58D, D62F, E65K, D66S
B17: D domain SEQ ID NO: 760 (designed binder)
chain: B1 chain with R8E, D9N, D12E, T16N, Y58E, E59D, E62Q, V66M
B18: D domain SEQ ID NO: 718 (designed binder)
chain: B1 chain with R8Y, D12Y, T16V, W19L, W55F, Y58Q, M65D, V66W
B19: D domain SEQ ID NO: 770 (designed binder)
chain: B4 chain with I5W, S9M, W12E, L19F, F55S, L58W, D62F, E65D, D66I
B20: D domain SEQ ID NO: 749 (designed binder)
chain: B1 chain with V5Y, R8D, D9S, D12M, T16D, W55Y, Y58Q, V66I
B21: D domain SEQ ID NO: 722 (designed binder)
chain: B7 chain with V8L, T12D, Q15E, V16E, Y55W, L62V, Y65D
B22: D domain SEQ ID NO: 727 (designed binder)
chain: B7 chain with F5W, V8L, T12D, Q15E, V16M, W19F, Y65N, S66M
B23: D domain SEQ ID NO: 750 (designed binder)
chain: B1 chain with V5Y, R8E, D9W, D12M, T16D, W55Y, Y58H, M65D
B24: D domain SEQ ID NO: 765 (designed binder)
chain: B7 chain with F5I, V8W, T12E, Q15E, V16D, Y55E, E58D, L62W, Y65D
B25: D domain SEQ ID NO: 729 (designed binder)
chain: MGSWWEFESRLDAIFMRLTALGGSEAELAAFEKEIAAFESELQAYKGKGNPEVEDLREDAAFIREFLQAYRHN
B26: D domain SEQ ID NO: 743 (designed binder)
chain: B7 chain with V8E, T12D, Q15W, V16D, Y55F, E58M, E59D, L62M, S66I
B27: D domain SEQ ID NO: 720 (designed binder)
chain: B1 chain with R8Y, T16H, W19D, Y58D, E62F, M65D, V66M
B28: D domain SEQ ID NO: 747 (designed binder)
chain: B1 chain with R8E, D9S, D12A, T16H, W55E, Y58E, E59Y, M65D, V66W
B29: D domain SEQ ID NO: 754 (designed binder)
chain: B4 chain with I5Y, S9E, D16E, L19Y, F55Y, L58Y, D62W, E65D, D66F
B30: D domain SEQ ID NO: 762 (designed binder)
chain: MGSWFEFEWRLEAIFDRLYALGGSEAELAAFEKEIAAFESELQAYKGKGNPEVEVLRAEAAEIRLRLQAYRHN
B31: D domain SEQ ID NO: 768 (designed binder)
chain: MGSWVEFVDRLEAIEDRLFALGGSEAELAAFEKEIAAFESELQAYKGKGNPEVEFLRDQAAYIRFMLQAYRHN
B32: D domain SEQ ID NO: 771 (designed binder)
chain: B30 chain with W9I, F15E, Y19F, V55F, A58D, L65Q, R66V
B33: D domain SEQ ID NO: 759 (designed binder)
chain: B30 chain with F5Y, E12D, F15Y, Y19G, V55W, A58E, E59D, L65A, R66L
B34: D domain SEQ ID NO: 746 (designed binder)
chain: B1 chain with V5Y, R8W, D12E, T16D, W55F, E59S, M65Y, V66Q
B35: D domain SEQ ID NO: 766 (designed binder)
chain: B30 chain with E8W, W9D, E12D, F15E, V55E, A58D, E62W, L65G, R66T
B36: D domain SEQ ID NO: 744 (designed binder)
chain: B4 chain with I5E, S9D, L19W, F55I, L58Y, E59D, D62Y, D66I
B37: D domain SEQ ID NO: 758 (designed binder)
chain: B30 chain with F5Y, W9H, E12D, F15Y, Y19W, V55W, A58E, E62W, R66W
B38: D domain SEQ ID NO: 726 (designed binder)
chain: B25 chain with W5V, S9Y, F15T, M16E, T19L, D55I, D59E, E65Q, F66W
B39: D domain SEQ ID NO: 741 (designed binder)
chain: B4 chain with I5T, S9W, W12Y, L19M, L58D, E65Q, D66Y
B40: D domain SEQ ID NO: 738 (designed binder)
chain: B4 chain with I5V, E8W, S9D, L19W, F55H, L58H, E59Y, E65V, D66W
B41: D domain SEQ ID NO: 728 (designed binder)
chain: B25 chain with S9D, F15E, M16Y, T19F, D55F, D59E, E65I
B42: D domain SEQ ID NO: 716 (designed binder)
chain: B1 chain with V5M, R8I, T16H, W55F, Y58E, V66Y
B43: D domain SEQ ID NO: 739 (designed binder)
chain: B4 chain with I5Y, E8A, S9D, L19W, L58Y, E59Y, E65W, D66V
B44: D domain SEQ ID NO: 773 (designed binder)
chain: B30 chain with F5I, W9D, F15E, Y19F, V55W, A58Q, R66M
B45: D domain SEQ ID NO: 761 (designed binder)
chain: B31 chain with V5Y, V8E, D9E, F19W, F55W, D58E, Y62F, F65T
B46: D domain SEQ ID NO: 733 (designed binder)
chain: MGSWNEFYDRLSAIYFRLQALGGSEAELAAFEKEIAAFESELQAYKGKGNPEVEHLRWYAADIRMILQAYRHN
B47: D domain SEQ ID NO: 731 (designed binder)
chain: B46 chain with N5Y, D9N, F16A, H55D, M65Y, I66M
B48: D domain SEQ ID NO: 724 (designed binder)
chain: B3 chain with M8E, V9D, E15Q, E16W, F19W, E59S, S62N, Y65Q
B49: D domain SEQ ID NO: 725 (designed binder)
chain: B4 chain with I5S, S9Y, W12F, D16N, L19D, L58E, D62M, E65Q, D66L
B50: D domain SEQ ID NO: 710 (designed binder)
chain: MGSWGEFWARLEAIWIRLDALGGSEAELAAFEKEIAAFESELQAYKGKGNPEVEWLREEAADIRRSLQAYRHN
B51: D domain SEQ ID NO: 730 (designed binder)
chain: MGSWVEFWHRLDAIKARLNALGGSEAELAAFEKEIAAFESELQAYKGKGNPEVEDLRWYAADFRLILQAYRHN

The target of the test is T1, CD123 (Homo sapiens (Human), UniProt P26951 19-305, limits assumed).
T1 construct: also called CD123-Signal
T1 sequence: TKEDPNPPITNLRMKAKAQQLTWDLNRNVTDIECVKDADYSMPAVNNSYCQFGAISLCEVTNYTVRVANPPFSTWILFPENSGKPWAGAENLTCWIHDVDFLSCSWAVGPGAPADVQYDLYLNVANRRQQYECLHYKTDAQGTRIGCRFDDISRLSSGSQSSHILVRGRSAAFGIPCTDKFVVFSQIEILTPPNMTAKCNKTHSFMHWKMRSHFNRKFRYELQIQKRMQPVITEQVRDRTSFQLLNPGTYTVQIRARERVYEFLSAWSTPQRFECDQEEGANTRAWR
The test is described as follows: ELISA, format not described. Details: unit not given here. A general note: An ELISA detects its analyte on a solid surface through an enzyme-linked reagent.
In the case of B1, the ELISA_avg was 4.2.

On to B2, for which the ELISA_avg came out at 4.6.

Molecule B3 returned an ELISA_avg of 4.1.

With B4, the ELISA_avg amounted to 8.7.

In turn, B5 gave an ELISA_avg of 11.5.

B6 showed an ELISA_avg of 3.

Molecule B7 registered an ELISA_avg of 5.1.

As to B8, the ELISA_avg stood at 6.1.

Turning to B9, the ELISA_avg was found to be 6.2.

B10 showed an ELISA_avg of 4.2.

For the molecule B11, the ELISA_avg turned out to be 11.3.

On to B12, for which the ELISA_avg stood at 6.4.

Molecule B13 displayed an ELISA_avg of 4.8.

With B14, the ELISA_avg amounted to 7.6.

In the case of B15, the ELISA_avg was determined as 6.2.

The molecule B16 showed an ELISA_avg of 8.9.

B17 gave an ELISA_avg of 6.2.

B18 registered an ELISA_avg of 5.8.

Regarding B19, the ELISA_avg came to 4.

Take B20: the ELISA_avg came to 3.2.

As to B21, the ELISA_avg was 12.2.

Molecule B22 gave an ELISA_avg of 9.

As to B23, the ELISA_avg was determined as 3.4.

B24: the ELISA_avg amounted to 4.5.

The molecule B25 had an ELISA_avg of 3.7.

B26 displayed an ELISA_avg of 5.1.

The molecule B27 yielded an ELISA_avg of 3.4.

B28 registered an ELISA_avg of 3.7.

Molecule B29 returned an ELISA_avg of 5.4.

As for B30, the ELISA_avg came out at 6.9.

B31 came in with an ELISA_avg of 4.9.

The molecule B32 yielded an ELISA_avg of 3.

Turning to B33, the ELISA_avg came to 6.

Molecule B34 had an ELISA_avg of 4.2.

On to B35, for which the ELISA_avg worked out at 4.9.

As to B36, the ELISA_avg came out at 4.1.

As to B37, the ELISA_avg was 6.3.

B38 showed an ELISA_avg of 3.9.

On to B39, for which the ELISA_avg worked out at 4.2.

The molecule B40 showed an ELISA_avg of 4.5.

On to B41, for which the ELISA_avg was 4.9.

The molecule B42 had an ELISA_avg of 4.3.

On to B43, for which the ELISA_avg came out at 4.

In the case of B44, the ELISA_avg stood at 21.8.

The molecule B45 gave an ELISA_avg of 6.

B46 returned an ELISA_avg of 10.6.

B47 registered an ELISA_avg of 10.6.

For B48, the ELISA_avg was 6.3.

B49 returned an ELISA_avg of 3.2.

Take B50: the ELISA_avg was determined as 15.

As for B51, the ELISA_avg turned out to be 3.5.

The values are drawn from US20250026849A1 (ARCELLX, published 2025).
